What was measured:
human CD5 on cells [1] = target: T1, human CD5 on cells (human, UniProt P06127 25-495); experiment: flow cytometry on MOLT-4 cells, antibody titration 2 h at 4 C, anti-mouse AF488 secondary, geometric MFI
T1 construct: Endogenous CD5 on MOLT-4 human T lymphoblast cells or primary human T cells; The cell type is named under assay; also called CD5 on MOLT-4 cells; CD5 on primary human T-cells
T1 sequence (looked up): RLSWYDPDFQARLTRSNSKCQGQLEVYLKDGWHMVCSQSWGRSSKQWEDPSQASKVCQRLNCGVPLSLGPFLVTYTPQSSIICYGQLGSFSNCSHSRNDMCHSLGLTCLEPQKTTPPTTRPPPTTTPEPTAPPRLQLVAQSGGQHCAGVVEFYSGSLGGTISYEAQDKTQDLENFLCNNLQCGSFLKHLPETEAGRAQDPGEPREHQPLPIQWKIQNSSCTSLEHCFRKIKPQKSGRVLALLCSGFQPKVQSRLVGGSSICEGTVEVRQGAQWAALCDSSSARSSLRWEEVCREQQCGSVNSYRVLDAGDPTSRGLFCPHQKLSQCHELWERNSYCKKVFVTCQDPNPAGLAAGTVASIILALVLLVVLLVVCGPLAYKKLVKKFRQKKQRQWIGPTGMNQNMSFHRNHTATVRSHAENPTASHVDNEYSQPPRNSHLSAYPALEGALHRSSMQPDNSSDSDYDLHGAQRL

human CD5 on cells [2] = target: T1, human CD5 on cells; experiment: flow cytometry on MOLT-4 cells, antibody titration, anti-mouse AF488 secondary, 4 C
human CD2 on cells [3] = target: T2, human CD2 on cells (human, UniProt P06729 25-351); experiment: as above
T2 construct: Endogenous CD2 on MOLT-4 human T lymphoblast cells, primary human T cells or primary human NK cells; The cell type is named under assay; also called CD2 on MOLT-4 cells; CD2 on primary human T-cells
T2 sequence: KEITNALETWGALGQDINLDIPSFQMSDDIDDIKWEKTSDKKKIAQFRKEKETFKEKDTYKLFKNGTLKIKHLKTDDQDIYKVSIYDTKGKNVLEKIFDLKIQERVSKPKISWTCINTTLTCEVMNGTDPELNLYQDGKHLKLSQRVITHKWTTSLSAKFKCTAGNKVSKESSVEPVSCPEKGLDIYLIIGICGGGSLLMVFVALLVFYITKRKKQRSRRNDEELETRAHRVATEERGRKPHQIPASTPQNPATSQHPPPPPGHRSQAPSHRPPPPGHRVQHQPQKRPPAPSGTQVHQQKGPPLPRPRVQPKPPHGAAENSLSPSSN

human CD5 on cells [4] = target: T1, human CD5 on cells; experiment: flow cytometry on primary human T-cells, antibody titration 2 h at 37 C, AF488 secondary, MFI
Method: Secondary anti-mouse AF488 stain, at a constant amount, was added for 30 minutes at 4° C.

human CD5 on cells [5] = target: T1, human CD5 on cells; experiment: flow cytometry on primary human T-cells, antibody titration 2 h at 37 C, AF488 secondary
[6] = target: T3, purified human CD5 ectodomain (human, UniProt P06127 25-372); experiment: BLI (Octet Red96), IgG on anti-human Fc biosensor, 50 nM human CD5 ectodomain
T3 sequence (looked up): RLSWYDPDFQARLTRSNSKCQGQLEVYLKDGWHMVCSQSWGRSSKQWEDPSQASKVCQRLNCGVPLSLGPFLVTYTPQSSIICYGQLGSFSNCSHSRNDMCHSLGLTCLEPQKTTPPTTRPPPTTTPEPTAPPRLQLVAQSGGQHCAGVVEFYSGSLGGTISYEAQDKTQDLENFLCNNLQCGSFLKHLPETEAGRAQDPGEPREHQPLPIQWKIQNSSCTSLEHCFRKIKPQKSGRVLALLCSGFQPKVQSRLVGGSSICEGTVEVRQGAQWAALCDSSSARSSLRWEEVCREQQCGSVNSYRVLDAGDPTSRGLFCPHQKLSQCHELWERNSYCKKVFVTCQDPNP
Method: To determine the binding characteristics of anti-CD5 antibody 5D7 hIgG1, antibody binding studies were performed at 25 degrees celsius in 1×PBS supplemented with 0.1% w/v bovine serum albumin with a Pall ForteBio Octet Red96 using biolayer interferometry (BLI).

human CD2 on cells [7] = target: T2, human CD2 on cells; experiment: flow cytometry on primary human T-cells, antibody titration 2 h at 37 C, AF488 secondary
[8] = target: T4, purified human CD2 ectodomain (human, UniProt P06729 25-209); experiment: BLI (Octet Red96), IgG on anti-murine Fc biosensor, 50 nM human CD2 ectodomain, 1:1 model
T4 construct: Bought reagent; also called Sigma Aldrich Catalog #5086
T4 sequence: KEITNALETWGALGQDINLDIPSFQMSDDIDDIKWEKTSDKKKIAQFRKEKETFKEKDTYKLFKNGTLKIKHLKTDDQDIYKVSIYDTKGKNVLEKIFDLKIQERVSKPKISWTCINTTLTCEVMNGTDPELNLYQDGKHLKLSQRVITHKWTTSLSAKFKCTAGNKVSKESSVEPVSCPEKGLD

[9] = target: T4, purified human CD2 ectodomain; experiment: BLI (Octet Red96), IgG on anti-murine Fc biosensor, 50 nM human CD2 ectodomain, 1:1 model, apparent monovalent affinity
human CD2 on cells [10] = target: T2, human CD2 on cells; experiment: flow cytometry on primary human T-cells, antibody titration 2 h at 37 C, AF488 secondary, MFI
Method: Primary human T-cells were plated at 8×10⁴ cells/well and stained with a titration of the murine anti-CD23 antibody RPA-2.10 for 2 hours at 37° C. Secondary anti-mouse or anti-human AF488 stain, relative to primary antibody, at a constant amount, was added for 30 minutes at 4° C. After washing, plates were run on a flow cytometer and binding of the indicated antibody (and the negative control, i.e., mIgG1 or hIgG1) was determined based on geometric mean fluorescence intensity in the AF488 channel.

[11] = target: T4, purified human CD2 ectodomain; experiment: BLI (Octet Red96), IgG on anti-human Fc biosensor, 50 nM human CD2 ectodomain, 1:1 model, apparent monovalent affinity
[12] = target: T4, purified human CD2 ectodomain; experiment: BLI (Octet Red96), IgG on anti-human Fc biosensor, 50 nM human CD2 ectodomain, 1:1 model

Question: What does the source list for “murine anti-CD5 antibody UCHT2 (BioLegend)”?
Answer: EC50 (read off the curve) (human CD5 on cells [1]): 0.3 nM; EC50 (human CD5 on cells [2]): 0.354 nM

Question: For murine anti-CD2 antibody TS1/8, which EC50 (human CD2 on cells [3]) is on record?
Answer: Its EC50 is 0.125 nM.

Question: “murine anti-CD5 antibody CRIS-1 (Novus Biologicals)” was tested. Which EC50 (read off the curve) (human CD5 on cells [1]) did it give?
Answer: The EC50 (read off the curve) was 0.04 nM.

Question: And the EC50 (human CD5 on cells [2])?
Answer: The EC50 was 0.043 nM.

B1: anti-CD5 antibody 5D7 hIgG1 (humanized version of murine antibody 5D7) (antibody, V domains shown)
VH: QVTLKESGPVLVKPTETLTLTCTFSGFSLSTSGMGVGWIRQAPGKGLEWVAHIWWDDDVYYNPSLKSRLTITKDASKDQVSLKLSSVTAADTAVYYCVRRRATGTGFDYWGQGTLVTVSS
VL: NIVMTQSPSSLSASVGDRVTITCQASQDVGTAVAWYQQKPDQSPKLLIYWTSTRHTGVPDRFTGSGSGTDFTLTISSLQPEDIATYFCHQYNSYNTFGSGTKLEIK
notes: Tested as human IgG1 (hIgG1); also called anti-CD5 5D7 antibody; humanized 5D7
Question: What does the source list for B1?
Answer: EC50 (read off the curve) (human CD5 on cells [4]): ~0.03 nM; EC50 (human CD5 on cells [5]): 0.003 nM; Kd [6]: 0.141 nM; koff [6]: 3.36e-05 s⁻¹; kon [6]: 239000 M⁻¹ s⁻¹

B2: anti-CD2 antibody RPA-2.10 mIgG1 (antibody, V domains shown)
VH: EVKLVESGGGLVKPGGSLKLSCAASGFTFSSYDMSWVRQTPEKRLEWVASISGGGFLYYLDSVKGRFTISRDNARNILYLHMTSLRSEDTAMYYCARSSYGEIMDYWGQGTSVTVSS
VL: DILLTQSPAILSVSPGERVSFSCRASQRIGTSIHWYQQRTTGSPRLLIKYASESISGIPSRFSGSGSGTDFTLSINSVESEDVADYYCQQSHGWPFTFGGGTKLEIER
notes: Murine IgG1; also called mRPA-2.10; murine anti-CD2 antibody RPA-2.10
Question: Which EC50 (human CD2 on cells [3]) does the source give for B2 here?
Answer: Its EC50 is 0.16 nM.

Question: And the EC50 (human CD2 on cells [7])?
Answer: Its EC50 is 0.00184 nM.

Question: And the koff [8]?
Answer: Its koff is 0.000172 s⁻¹.

Question: What about the kon [8] of the same molecule?
Answer: The kon was 86000 M⁻¹ s⁻¹.

Question: And the Kd [9]?
Answer: The Kd was 2 nM.

Question: And the “EC50 (read off the curve)” value (human CD2 on cells [10])?
Answer: The value was roughly 0.03 nM.

B3: anti-CD2 antibody Ab1 hIgG1 (antibody, V domains shown)
VH: QVQLVQSGAEVKKPGASVKVSCKASGYTFTEYYMYWVRQAPGQGLELMGRIDPEDGSIDYVEKFKKKVTLTADTSSSTAYMELSSLTSDDTAVYYCARGKFNYRFAYWGQGTLVTVSS
VL: DVVMTQSPPSLLVTLGQPASISCRSSQSLLHSSGNTYLNWLLQRPGQSPQPLIYLVSKLESGVPDRFSGSGSGTDFTLKISGVEAEDVGVYYCMQFTHYPYTFGQGTKLEIK
notes: Tested as human IgG1 (hIgG1)
Question: B3 was tested. Which Kd [11] did it give?
Answer: The Kd was 2.12 nM.

Question: And the koff [12]?
Answer: The koff was 0.000289 s⁻¹.

Question: And the kon [12]?
Answer: Its kon is 136000 M⁻¹ s⁻¹.
